Results reported in paper PMC6205638, “Exploring natural genetic variation in tomato sucrose synthases on the basis of increased kinetic properties” (PLoS ONE, 2018).

Target: Tomato sucrose synthase SuSy3-haplotype#1 (cv Moneymaker) (S. lycopersicum cv Moneymaker)
Test: native gel or EMSA; Native PAGE on Mini-PROTEAN TGX gel 4-20% of the IMAC-purified product; size estimated against a prestained protein ladder

stoichiometry N: 4
Substance: Tomato sucrose synthase SuSy3-haplotype#1 (cv Moneymaker) (enzyme)
